Data: patent US20200308290A1 (AbbVie / Abbott, published 2020)
Like-named read-outs stand apart in the source and are kept apart here. One block for each binder: values may come before it.

Key:
[1] = target: T1, human CD25 (recombinant soluble) (human, UniProt P01589 22-240); test: competition ELISA on plate-coated CD25: competitor antibody titrated against biotinylated daclizumab, OD415
T1 construct: extracellular domain; bought protein; also called IL2-Rα; recombinant human IL2-Rα
T1 sequence (looked up): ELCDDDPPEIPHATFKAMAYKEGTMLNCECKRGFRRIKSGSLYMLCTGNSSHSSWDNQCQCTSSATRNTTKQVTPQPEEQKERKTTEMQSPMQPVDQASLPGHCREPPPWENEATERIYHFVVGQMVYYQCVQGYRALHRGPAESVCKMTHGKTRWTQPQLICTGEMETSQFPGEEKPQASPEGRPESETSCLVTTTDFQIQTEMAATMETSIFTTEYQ

[2] = target: T1, human CD25 (recombinant soluble); test: as above; remark: listed apart in the source
[3] = target: T2, human CD25 (human, UniProt P01589 22-213, limits assumed); test: SPR (BIAcore)
T2 construct: Recombinant soluble human CD25, coated on plates (ELISA) or injected over captured antibody (BIAcore); also called hCD25; IL2-R alpha
T2 sequence (looked up): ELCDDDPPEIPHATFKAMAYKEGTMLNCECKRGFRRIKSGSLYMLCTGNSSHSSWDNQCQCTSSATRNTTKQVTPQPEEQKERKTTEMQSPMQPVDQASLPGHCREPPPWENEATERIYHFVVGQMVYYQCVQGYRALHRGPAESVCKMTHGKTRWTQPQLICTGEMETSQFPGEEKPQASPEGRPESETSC

[4] = target: T2, human CD25; test: competition ELISA vs biotinylated daclizumab, fold over wild type
[5] = target: T3, CD25 (recombinant) (human, UniProt P01589 22-213, limits assumed); test: SPR (BIAcore)
T3 construct: bought protein; also called IL2-R alpha; IL2-Rα
T3 sequence (looked up): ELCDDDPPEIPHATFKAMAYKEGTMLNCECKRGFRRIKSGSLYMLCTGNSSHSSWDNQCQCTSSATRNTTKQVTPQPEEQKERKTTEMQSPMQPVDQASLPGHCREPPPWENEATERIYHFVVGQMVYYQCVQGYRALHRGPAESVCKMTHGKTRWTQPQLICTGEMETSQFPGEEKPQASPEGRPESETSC

[6] = target: T3, CD25 (recombinant); test: ELISA, relative to wild type; * = similar to WT
[7] = target: T4, recombinant human CD25 (IL2-Rα) (human, UniProt P01589 22-213, limits assumed); test: SPR (BIAcore), affinity benchmarked to DAC-HYP, n=3
T4 construct: Bought protein; also called recombinant human IL2-Rα; recombinant soluble human CD25
T4 sequence (looked up): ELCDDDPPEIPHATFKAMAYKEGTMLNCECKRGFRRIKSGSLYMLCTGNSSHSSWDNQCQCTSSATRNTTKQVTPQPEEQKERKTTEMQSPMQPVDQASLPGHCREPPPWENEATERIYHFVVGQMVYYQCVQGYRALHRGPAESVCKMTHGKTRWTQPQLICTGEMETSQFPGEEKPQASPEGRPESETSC
Procedure: Double referencing was applied in each analysis to eliminate background responses from reference surface and buffer only control (0 nM). […] Each set of experiments was performed three times to assess the standard deviation of the data.
Modified antibody proteins were tested for binding affinity using a surface plasmon resonance assay format in a BIAcore device. […] Recombinant soluble human CD25 was flowed over the sensor chip and changes in mass were detected. The data was interpreted to yield kₐ, kd and KD values for all the proteins tested.

[8] = target: T4, recombinant human CD25 (IL2-Rα); test: SPR (BIAcore), antibody captured by anti-human Fc, soluble human CD25 as analyte, n=3
Procedure: For this capture approach, 30 μg/ml of GAHFc was immobilized to achieve a high response unit (20,000 RU) on each flow cell on the Research-grade CMS sensor chip using the BIAcore amine coupling reagents (N-ethyl-N′-dimethylamino-propylcarbodiimide, EDC; N-hydroxysuccinimide, NHS; and ethanolamine HCl, pH 8.5). […] A 3 min association phase of CD25 was followed by a 15 min injection of HBS-P running buffer (10 mM HEPES, 150 mM sodium chloride, 0.005% P-20 surfactant, pH 7.4) to monitor dissociation for each binding cycle, with a different CD25 concentration per cycle. The surface was regenerated with 20 mM HCl at 100 μl/min flow rate at the end of each cycle. […] Double referencing was applied in each analysis to eliminate background responses from reference surface and buffer only control (0 nM). […] Each set of experiments was performed three times to assess the standard deviation of the data.
Modified antibody proteins were tested for binding affinity using a surface plasmon resonance assay format in a BIAcore device. […] Recombinant soluble human CD25 was flowed over the sensor chip and changes in mass were detected.

[9] = target: T4, recombinant human CD25 (IL2-Rα); test: direct-binding ELISA on plate-coated recombinant human IL2-Rα; EC50 benchmarked to DAC-HYP
Procedure: MaxiSorp ELISA plates (Nunc Nalge International) were coated overnight at 4° C. with 100 μl/well of a 50 ng/ml solution of recombinant human IL2-Rα (R&D Systems or PeproTech, Inc., Rocky Hill, N.J.) in DPBS (Invitrogen Corporation), washed with Wash Buffer (PBS containing 0.1% Tween 20), and blocked for 30 min at room temperature with 200 μl/well of SuperBlock Blocking Buffer in TBS (Pierce Chemical Company). After washing with Wash Buffer, test antibodies (starting at 4 μg/ml and serially diluted 3-fold) in 100 μl/well of ELISA buffer (PBS containing 1% BSA and 0.1% Tween 20) were added in duplicate. After incubating the plates for 1 hr at room temperature, and washing with Wash Buffer, bound antibodies were detected using 100 μl/well of a 1:20,000 dilution of HRP-conjugated goat anti-human IgG (Southern Biotechnology Associates, Inc.) in ELISA buffer. After incubating for 1 hr at room temperature, and washing with Wash Buffer, color development was performed by adding 150 μl/well of TMB Peroxidase Substrate/Peroxidase Solution B (KPL, Inc.). After incubating for 8 min at room temperature, color development was stopped by adding 50 μl/well of 2 N sulfuric acid. Absorbance was read at 450 nm.

[10] = target: T3, CD25 (recombinant); test: ELISA, relative to wild type
[11] = target: T2, human CD25; test: SPR (BIAcore); remark: listed apart in the source
[12] = target: T5, human CD25 on cells (human, UniProt P01589 22-272); test: cell-based or functional assay
T5 sequence (looked up): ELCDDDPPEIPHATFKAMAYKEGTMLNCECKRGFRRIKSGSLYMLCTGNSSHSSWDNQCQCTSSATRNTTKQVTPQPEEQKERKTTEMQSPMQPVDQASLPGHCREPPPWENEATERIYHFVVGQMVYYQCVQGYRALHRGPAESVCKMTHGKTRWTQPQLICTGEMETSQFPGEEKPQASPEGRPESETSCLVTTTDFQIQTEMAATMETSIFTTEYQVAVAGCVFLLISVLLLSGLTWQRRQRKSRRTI

[13] = target: T6, cynomolgous monkey CD25 (cynomolgous monkey); test: SPR (BIAcore), cynomolgous CD25
T6 construct: also called cmCD25; cm

[14] = target: T2, human CD25; test: competition ELISA vs biotinylated daclizumab, fold over wild type; remark: listed apart in the source

- Kd [3]: 0.155 nM
- ELISA fold improvement [4]: 3.98 fold
B3: Variant C12 (antibody, name in Kabat numbering, V domains shown)
VH: QVQLVQSGAEVKKPGSSVKVSCKASGYTFTSYRMHWVRQAPGQGLEWIGYISPRRGYTQYNQKFKDKATITADESTNTAYMELSSLRSEDTAVYYCARGGGVFDYWGQGTLVTVSS
VL: DIQMTQSPSTLSASVGDRVTITCSASSSISYMHWYQQKPGKAPKLLIYTTSNLASGVPARFSGSGSGTEFTLTISSLQPDDFATYYCHQRSTYPLTFGQGTKVEVK
notes: Isotype as printed: G1 fa

- Kd [3]: 0.138 nM
- ELISA fold improvement [4]: 3.47 fold
B4: Variant C11 (antibody, name in Kabat numbering, V domains shown)
VH: QVQLVQSGAEVKKPGSSVKVSCKASGYTFTSYRMHWVRQAPGQGLEWIGYISPKRGYTQYNQKFKDKATITADESTNTAYMELSSLRSEDTAVYYCARGGGVFDYWGQGTLVTVSS
VL: DIQMTQSPSTLSASVGDRVTITCSASSSISYMHWYQQKPGKAPKLLIYTTSNLASGVPARFSGSGSGTEFTLTISSLQPDDFATYYCHQRSTYPLTFGQGTKVEVK
notes: Isotype as printed: G1 fa

- Fold improvement (KD) [5]: 1 fold over wild type
- Kd [5]: 0.493 nM
- koff [5]: 0.000183 s⁻¹
- kon [5]: 371000 M⁻¹ s⁻¹
- ELISA (wt = 1) [6]: 1.1 fold (wt = 1)
B5: daclizumab variant S78 (antibody, IgG1, name in Kabat numbering, V domains shown)
VH: QVQLVQSGAEVKKPGSSVKVSCKASGYTFTSYRMHWVRQAPGQGLEWVGYINPSTGYTEYNQKFKDKATITADESTNTAYMELSSLRSEDTAVYYCARGGGVFDYWGQGTLVTVSS
VL: DIQMTQSPSTLSASVGDRVTITCSASSSISYMHWYQQKPGKAPKLLIYTTSNLASGVPARFSGSGSGTEFTLTISSLQPDDFATYYCHQRSTYPLTFGQGTKVEVK
notes: IgG1; Kabat positions; also called I48V; DAC I48V

- Kd [5]: 0.388 nM
- ELISA (wt = 1) [10]: 1.5 fold (wt = 1)
B7: daclizumab variant S79 (antibody, IgG1, name in Kabat numbering, V domains shown)
VH: QVQLVQSGAEVKKPGSSVKVSCKASGYTFTSYRMHWVRQAPGQGLEWIGYINPSTGYTEYNQKFKDKATITADKSTNTAYMELSSLRSEDTAVYYCARGGGVFDYWGQGTLVTVSS
VL: DIQMTQSPSTLSASVGDRVTITCSASSSISYMHWYQQKPGKAPKLLIYTTSNLASGVPARFSGSGSGTEFTLTISSLQPDDFATYYCHQRSTYPLTFGQGTKVEVK
notes: IgG1; Kabat positions; also called E73K

- EC50 [1]: 1.18 µg/mL
B8: daclizumab VH and NuhuTacVL (antibody, V domains shown)
VH: QVQLVQSGAEVKKPGSSVKVSCKASGYTFTSYRMHWVRQAPGQGLEWIGYINPSTGYTEYNQKFKDKATITADESTNTAYMELSSLRSEDTAVYYCARGGGVFDYWGQGTLVTVSS
VL: EIVLTQSPATLSLSPGERATLTCSASSSISYMHWFQQKPGQAPRLLIYTTSNLASGIPARFSGSGSGTDYTLTISSLEPEDFAVYYCHQRSTYPLTFGQGTKVEIK
notes: combination antibody

- Kd [11]: 0.012 nM
- PBMC (fold improvement in inhibition of IL2-induced PHA blast proliferation) [12]: 7.7 fold
- Kd [13]: 0.074 nM
- ELISA fold improvement [14]: 6.8 fold
B9: Variant C40 (antibody, name in Kabat numbering, V domains shown)
VH: QVQLVQSGAEVKKPGSSVKVSCKASGYTFTSYRMHWVRQAPGQGLEWMGYISPRKGYTEYNQKFKDKATITADESTNTAYMELSSLRSEDTAVYYCARGGGVFDYWGQGTLVTVSS
VL: DIQMTQSPSTLSASVGDRVTITCSASSSISYMHWYQQKPGKAPKLLIYTTSELASGVPARFSGSGSGTEFTLTISSLQPDDFATYYCHQRSTYPLTFGQGTKVEVK
notes: Isotype as printed: G2M3.QL

- Fold improvement (KD) [5]: 0.9 fold over wild type
- Kd [5]: 0.597 nM
- koff [5]: 0.000222 s⁻¹
- kon [5]: 372000 M⁻¹ s⁻¹
- ELISA (wt = 1) [6]: 1.32 fold (wt = 1)
B10: daclizumab variant S76 (antibody, IgG1, name in Kabat numbering, V domains shown)
VH: QVQLVQSGAEVKKPGSSVKVSCKASGYTFTSYRMHWVRQAPGQGLEWLGYINPSTGYTEYNQKFKDKATITADESTNTAYMELSSLRSEDTAVYYCARGGGVFDYWGQGTLVTVSS
VL: DIQMTQSPSTLSASVGDRVTITCSASSSISYMHWYQQKPGKAPKLLIYTTSNLASGVPARFSGSGSGTEFTLTISSLQPDDFATYYCHQRSTYPLTFGQGTKVEVK
notes: IgG1; Kabat positions; also called I48L; DAC I48L

- Kd [11]: 0.0095 nM
- Kit225 (fold improvement in inhibition of IL2-induced Kit225 proliferation) [12]: 3.6 fold
- PBMC (fold improvement in inhibition of IL2-induced PHA blast proliferation) [12]: 5.8 fold
- Kd [13]: 0.1 nM
- ELISA fold improvement [14]: 8.2 fold
B11: Variant C38 (antibody, name in Kabat numbering, V domains shown)
VH: QVQLVQSGAEVKKPGSSVKVSCKASGYTFTSYRMHWVRQAPGQGLEWMGYISPRKGYTEYNQKFKDKATITADESTNTAYMELSSLRSEDTAVYYCARGGGVFDYWGQGTLVTVSS
VL: DIQMTQSPSTLSASVGDRVTITCSASSSISYMHWYQQKPGKAPKLLIYTTSNLASGVPARFSGSGSGTEFTLTISSLQPDDFATYYCHQRSTYPLTFGQGTKVEVK
notes: Isotype as printed: G2M3.QL

The remaining lines, values behind:

B1: NuhuTacVH with daclizumabVL (antibody, V domains shown)
VH: EVQLVQSGAEVKKPGASVKVSCKASGYTFTSYRMHWVRQAPGQGLEWIGYINPSTGYTEYNQKFKDKATMTADKSISTAYMELSSLRSEDTAVYYCARGGGVFDYWGQGTLVTVSS
VL: DIQMTQSPSTLSASVGDRVTITCSASSSISYMHWYQQKPGKAPKLLIYTTSNLASGVPARFSGSGSGTEFTLTISSLQPDDFATYYCHQRSTYPLTFGQGTKVEVK
notes: combination antibody
- EC50 [1]: 0.47 µg/mL

B2: NuhuTac (antibody, V domains shown)
VH: EVQLVQSGAEVKKPGASVKVSCKASGYTFTSYRMHWVRQAPGQGLEWIGYINPSTGYTEYNQKFKDKATMTADKSISTAYMELSSLRSEDTAVYYCARGGGVFDYWGQGTLVTVSS
VL: EIVLTQSPATLSLSPGERATLTCSASSSISYMHWFQQKPGQAPRLLIYTTSNLASGIPARFSGSGSGTDYTLTISSLEPEDFAVYYCHQRSTYPLTFGQGTKVEIK
notes: rehumanization of mouse anti-Tac on frameworks R3.5H5G (VH) and ka3d1 (VL); also called rehumanized anti-Tac; rehumanized antibody
- EC50 [1]: 0.49 µg/mL
- EC50 [2]: 0.71 µg/mL

B6: DAC I48L (antibody, IgG1, name in Kabat numbering, V domains shown)
VH: QVQLVQSGAEVKKPGSSVKVSCKASGYTFTSYRMHWVRQAPGQGLEWLGYINPSTGYTEYNQKFKDKATITADESTNTAYMELSSLRSEDTAVYYCARGGGVFDYWGQGTLVTVSS
VL: DIQMTQSPSTLSASVGDRVTITCSASSSISYMHWYQQKPGKAPKLLIYTTSNLASGVPARFSGSGSGTEFTLTISSLQPDDFATYYCHQRSTYPLTFGQGTKVEVK
notes: E.HAT variant, IgG1/kappa
- Relative % KD [7]: 83%
- Kd [8]: 0.597 nM
- koff [8]: 0.000222 s⁻¹
- kon [8]: 372000 M⁻¹ s⁻¹
- Relative % Potency [9]: 132%

B12: DAC I48V (antibody, IgG1, name in Kabat numbering, V domains shown)
VH: QVQLVQSGAEVKKPGSSVKVSCKASGYTFTSYRMHWVRQAPGQGLEWVGYINPSTGYTEYNQKFKDKATITADESTNTAYMELSSLRSEDTAVYYCARGGGVFDYWGQGTLVTVSS
VL: DIQMTQSPSTLSASVGDRVTITCSASSSISYMHWYQQKPGKAPKLLIYTTSNLASGVPARFSGSGSGTEFTLTISSLQPDDFATYYCHQRSTYPLTFGQGTKVEVK
notes: E.HAT variant, IgG1/kappa
- Relative % KD [7]: 100%
- Kd [8]: 0.493 nM
- koff [8]: 0.000183 s⁻¹
- kon [8]: 371000 M⁻¹ s⁻¹
- Relative % Potency [9]: 109%

B13: Variant C10 (antibody, name in Kabat numbering, V domains shown)
VH: QVQLVQSGAEVKKPGSSVKVSCKASGYTFTSYRMHWVRQAPGQGLEWIGYIRPRRGYTQYNQKFKDKATITADESTNTAYMELSSLRSEDTAVYYCARGGGVFDYWGQGTLVTVSS
VL: DIQMTQSPSTLSASVGDRVTITCSASSSISYMHWYQQKPGKAPKLLIYTTSNLASGVPARFSGSGSGTEFTLTISSLQPDDFATYYCHQRSTYPLTFGQGTKVEVK
notes: Isotype as printed: G1 fa
- Kd [3]: 0.244 nM
- ELISA fold improvement [4]: 3.91 fold

B14: Variant C9 (antibody, name in Kabat numbering, V domains shown)
VH: QVQLVQSGAEVKKPGSSVKVSCKASGYTFTSYRMHWVRQAPGQGLEWIGYIRPKRGYTQYNQKFKDKATITADESTNTAYMELSSLRSEDTAVYYCARGGGVFDYWGQGTLVTVSS
VL: DIQMTQSPSTLSASVGDRVTITCSASSSISYMHWYQQKPGKAPKLLIYTTSNLASGVPARFSGSGSGTEFTLTISSLQPDDFATYYCHQRSTYPLTFGQGTKVEVK
notes: Isotype as printed: G1 fa
- Kd [3]: 0.181 nM
- ELISA fold improvement [4]: 3.97 fold
